Test [1] deals with human GLP-1 receptor (GLP1R) stably expressed on PathHunter cells (human, UniProt P43220 24-463). The experiment in a line: cell-based or functional assay.
Test [2] deals with T1, PTH1 receptor expressed on mammalian cells (UniProt Q03431 27-593, limits assumed).
T1 sequence (looked up): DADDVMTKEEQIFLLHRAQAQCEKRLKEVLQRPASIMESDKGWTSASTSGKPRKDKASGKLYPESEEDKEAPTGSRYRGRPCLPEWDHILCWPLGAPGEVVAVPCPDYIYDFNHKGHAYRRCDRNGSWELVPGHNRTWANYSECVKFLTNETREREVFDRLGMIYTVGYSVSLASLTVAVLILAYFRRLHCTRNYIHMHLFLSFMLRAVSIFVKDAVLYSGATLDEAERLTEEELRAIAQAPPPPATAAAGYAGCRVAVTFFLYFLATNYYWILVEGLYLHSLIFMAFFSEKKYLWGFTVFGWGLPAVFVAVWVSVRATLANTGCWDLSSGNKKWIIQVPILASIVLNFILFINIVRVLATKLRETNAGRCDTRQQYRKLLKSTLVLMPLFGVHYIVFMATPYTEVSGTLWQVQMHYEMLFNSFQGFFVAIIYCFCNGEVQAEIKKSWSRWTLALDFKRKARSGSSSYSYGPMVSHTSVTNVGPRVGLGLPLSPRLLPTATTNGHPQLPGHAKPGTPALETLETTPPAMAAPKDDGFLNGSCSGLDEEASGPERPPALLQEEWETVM
The experiment in a line: cell-based or functional assay.

For HAEGTFTSDVSSYLEGQAAKEFIAWLVKGRGC (C-terminal cysteine thiol conjugated to VitD-(25)-PEG2K-maleimide carrier) [GLP-1-C-PEG2K-(25)-VitD], the “EC50, recruitment of beta-Arrestin” value in test [1] is 510 nM.

On to HAEGTFTSDVSSYLEGQAAKEFIAWLVKGRGC (C-terminal cysteine thiol conjugated to VitD-(3)-PEG2K-maleimide carrier) [GLP-1-C-PEG2K-(3)-VitD], for which the “EC50, recruitment of beta-Arrestin” value in test [1] was determined as 520 nM.

Turning to SVSEIQLMHNLGKHLNSMERVEWLRKKLQDVHNFC (C-terminal cysteine thiol conjugated to VitD-(3)-PEG2K-maleimide carrier) [PTH-C-PEG2K-(3)-VitD], in test [2], the “Calcium EC50” value stood at 14 nM and the “cAMP EC50” value is 0.0186 nM.

The values above are taken from patent US20190183966A1 (EXTEND BIOSCIENCES, published 2019).
